Experimental data reported in patent publication US20230125550A1 (ARCELLX, published 2023).

T1: recombinant human CD123-Fc (human, UniProt P26951 19-305)
T1 construct: not shown: Fc part of CD123-Fc
T1 sequence: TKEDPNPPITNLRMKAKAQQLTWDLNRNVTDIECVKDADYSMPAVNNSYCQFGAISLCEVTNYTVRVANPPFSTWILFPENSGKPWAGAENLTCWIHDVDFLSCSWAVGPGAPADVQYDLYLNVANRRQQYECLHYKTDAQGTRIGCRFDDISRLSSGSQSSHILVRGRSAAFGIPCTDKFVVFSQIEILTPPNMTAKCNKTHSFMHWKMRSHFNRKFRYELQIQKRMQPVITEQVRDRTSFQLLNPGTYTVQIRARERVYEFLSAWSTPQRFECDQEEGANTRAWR


What was measured:
[1] = target: T1, recombinant human CD123-Fc; assay: phage ELISA, A450 target/A450 IgG1-Fc
Method in brief: (§1)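 Phage were rescued in 96-well format with VCSM13 helper phage from individual phagemid colonies picked from panning output. Plates were coated with 1.3 microg/ml goat anti-human IgG1-Fc antibody, then 5 nM recombinant human target or IgG1-Fc, then 50 microl phage diluted 5× in ELISA blocking buffer. Binding was detected with HRP-conjugated anti-M13 antibody at 450 nm. The ELISA ratio is target over IgG1-Fc absorbance, averaged across all screened wells holding that clone.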

HER2 = HER2 (Homo sapiens (Human), UniProt P04626 23-652); assay: phage ELISA, A450 target/A450 IgG1-Fc
Method in brief: as §1

ELISA_avg [1] [ratio]	ELISA_avg (HER2) [ratio]	Binder
6.2		SEQ ID NO 727 (designed binder) MGSWVEFENRLEAIENRLWALGGSEAELAAFEKEIAAFESELQAYKGKGNPEVEWLREDAAQIRMMLQAYRHN
3.2		SEQ ID NO 692 (designed binder) MGSWSEFEYRLFAIENRLDALGGSEAELAAFEKEIAAFESELQAYKGKGNPEVEFLREEAAMIRQLLQAYRHN
3		SEQ ID NO 738 (designed binder) MGSWFEFEIRLEAIEDRLFALGGSEAELAAFEKEIAAFESELQAYKGKGNPEVEFLRDEAAEIRQVLQAYRHN
4.5		SEQ ID NO 732 (designed binder) MGSWIEFWDRLEAIEDRLWALGGSEAELAAFEKEIAAFESELQAYKGKGNPEVEELRDEAAWIRDSLQAYRHN
6.9		SEQ ID NO 729 (designed binder) MGSWFEFEWRLEAIFDRLYALGGSEAELAAFEKEIAAFESELQAYKGKGNPEVEVLRAEAAEIRLRLQAYRHN
4.9		SEQ ID NO 735 (designed binder) MGSWVEFVDRLEAIEDRLFALGGSEAELAAFEKEIAAFESELQAYKGKGNPEVEFLRDQAAYIRFMLQAYRHN
4.9		SEQ ID NO 733 (designed binder) MGSWFEFWDRLDAIEDRLYALGGSEAELAAFEKEIAAFESELQAYKGKGNPEVEELRDEAAWIRGTLQAYRHN
6		SEQ ID NO 728 (designed binder) MGSWYEFEERLEAIEDRLWALGGSEAELAAFEKEIAAFESELQAYKGKGNPEVEWLREQAAFIRTMLQAYRHN
21.8		SEQ ID NO 740 (designed binder) MGSWIEFEDRLEAIEDRLFALGGSEAELAAFEKEIAAFESELQAYKGKGNPEVEWLRQEAAEIRLMLQAYRHN
3		SEQ ID NO 739 (designed binder) MGSWYEFYQRLEAIEDRLFALGGSEAELAAFEKEIAAFESELQAYKGKGNPEVEWLRDEAAEIRVVLQAYRHN
4		SEQ ID NO 737 (designed binder) MGSWWEFEMRLEAIEDRLFALGGSEAELAAFEKEIAAFESELQAYKGKGNPEVESLRWEAAFIRDILQAYRHN
8.9		SEQ ID NO 734 (designed binder) MGSWEEFTDRLWAIEDRLYALGGSEAELAAFEKEIAAFESELQAYKGKGNPEVEWLRDEAAFIRKSLQAYRHN
	10	SEQ ID NO 911 (designed binder) MGSWHEFRWRLFAIWQRLHALGGSEAELAAFEKEIAAFESELQAYKGKGNPEVEWLRLDAALIRVMLQAYRHN
	7.18	SEQ ID NO 920 (designed binder) MGSWYEFRWRLHAIWLRLGALGGSEAELAAFEKEIAAFESELQAYKGKGNPEVEWLRQDAAQIRYILQAYRHN
15		SEQ ID NO 677 (designed binder) MGSWGEFWARLEAIWIRLDALGGSEAELAAFEKEIAAFESELQAYKGKGNPEVEWLREEAADIRRSLQAYRHN
	14.8	SEQ ID NO 934 (designed binder) MGSWSEFWFRLHAILYRLQALGGSEAELAAFEKEIAAFESELQAYKGKGNPEVETLRDAAAEIRVALQAYRHN
7.1		SEQ ID NO 736 (designed binder) MGSWFEFVDRLEAIEMRLFALGGSEAELAAFEKEIAAFESELQAYKGKGNPEVELLRWRAAMIRYDLQAYRHN
	8.15	SEQ ID NO 921 (designed binder) MGSWHEFLRRLLAIEMRLYALGGSEAELAAFEKEIAAFESELQAYKGKGNPEVEHLRVRAASIRQMLQAYRHN
15.3		SEQ ID NO 730 (designed binder) MGSWWEFEDRLMAIYDRLYALGGSEAELAAFEKEIAAFESELQAYKGKGNPEVEYLRAEAALIRETLQAYRHN
4.7		SEQ ID NO 731 (designed binder) MGSWFEFEDRLYAIEDRLYALGGSEAELAAFEKEIAAFESELQAYKGKGNPEVEYLRWGAATIRDELQAYRHN
10.6		SEQ ID NO 700 (designed binder) MGSWNEFYDRLSAIYFRLQALGGSEAELAAFEKEIAAFESELQAYKGKGNPEVEHLRWYAADIRMILQAYRHN

ELISA_avg [1] [ratio]	ELISA_avg (HER2) [ratio]	Binder
10.6		SEQ ID NO 698 (designed binder) MGSWYEFYNRLSAIYARLQALGGSEAELAAFEKEIAAFESELQAYKGKGNPEVEDLRWYAADIRYMLQAYRHN
9		SEQ ID NO 701 (designed binder) MGSWNEFYDRLSAIYFRLQALGGFEAELAAFEKEIAAFESELQAYKGKGNPEVEHLRWYAADIRMILQAYRHN
4.8		SEQ ID NO 703 (designed binder) MGSWVEFYDRLHAIYFRLLALGGSEAELAAFEKEIAAFESELQAYKGKGNPEVEDLRWYAADIRLVLQAYRHN
3.9		SEQ ID NO 702 (designed binder) MGSWEEFYDRLGAIFARLHALGGSEAELAAFEKEIAAFESELQAYKGKGNPEVEDLRWYAADIRMILQAYRHN
3.9		SEQ ID NO 704 (designed binder) MGSWKEFDNRLYAIEDRLRALGGSEAELAAFEKEIAAFESELQAYKGKGNPEVEHLRWYAADIRMILQAYRHN
5.3		SEQ ID NO 699 (designed binder) MGSWYEFYDRLSAIYARLQALGGSEAELAAFEKEIAAFESELQAYKGKGNPEVEDLRWYAADIRYMLQAYRHN
3.5		SEQ ID NO 697 (designed binder) MGSWVEFWHRLDAIKARLNALGGSEAELAAFEKEIAAFESELQAYKGKGNPEVEDLRWYAADFRLILQAYRHN
	4.95	SEQ ID NO 925 (designed binder) MGSWKTFKIELAGIKLELEALGGSEAELAGFENAIAQFESSLQYYKGKGNPEVEALRKEAAAIRDELQAYRHN
	7.91	SEQ ID NO 923 (designed binder) MGSWVNFKTHLARIKVHLEALGGSEAELALFEHDIANFEQVLQQYKGKGNPEVEALRKEAAAIRDELQAYRHN
	8.69	SEQ ID NO 922 (designed binder) MGSWWGFKVNLAWIKWKLEALGGSEAELAYFELWIANFEHSLQEYKGKGNPEVEALRKEAAAIRDELQAYRHN
	3.28	SEQ ID NO 924 (designed binder) MGSWLVFKDELAGIKNYLEALGGSEAELATFEQDIAWFEQWLQNYKGKGNPEVEALRKEAAAIRDELQAYRHN
	5.17	SEQ ID NO 926 (designed binder) MGSWWEFKVRLSAIQYRLYALGGSEAELAAFEKEIAAFESELQAYKGKGNPEVEALREQAALIRTILQAYRHN
	4.49	SEQ ID NO 929 (designed binder) MGSWWEFKIRLYAIEYRLNALGGSEAELAAFEKEIAAFESELQAYKGKGNPEVEALRAKAAQIRYNLQAYRHN
	14.4	SEQ ID NO 928 (designed binder) MGSWWEFQVRLRAIQYRLNALGGSEAELAAFEKEIAAFESELQAYKGKGNPEVEYLRGLAAQIRFDLQAYRHN
	11.9	SEQ ID NO 927 (designed binder) MGSWWEFHIRLHAINYRLAALGGSEAELAAFEKEIAAFESELQAYKGKGNPEVEALRELAAKIRGDLQAYRHN
	10.1	SEQ ID NO 933 (designed binder) MGSWWEFKVRLRAIEYRLSALGGSEAELAAFEKEIAAFESELQAYKGKGNPEVEELRVLAASIRIHLQAYRHN
	7.86	SEQ ID NO 930 (designed binder) MGSWFEFNIRLHAIEYRLKALGGSEAELAAFEKEIAAFESELQAYKGKGNPEVEELRNYAASIRKLLQAYRHN
	7.75	SEQ ID NO 931 (designed binder) MGSWFEFEIRLRAIEYRLSALGGSEAELAAFEKEIAAFESELQAYKGKGNPEVEKLRELAAEIRYALQAYRHN
	13.1	SEQ ID NO 932 (designed binder) MGSWFEFKIRLYAIQYRLSALGGSEAELAAFEKEIAAFESELQAYKGKGNPEVEELRNLAAEIRHSLQAYRHN
6.3		SEQ ID NO 691 (designed binder) MGSWYEFEDRLDAIQWRLWALGGSEAELAAFEKEIAAFESELQAYKGKGNPEVEFLRESAANIRQHLQAYRHN
